Test [1] concerns the target T1, glucokinase (GK) (Mus musculus, UniProt P52792).
T1 sequence (P52792 1-465): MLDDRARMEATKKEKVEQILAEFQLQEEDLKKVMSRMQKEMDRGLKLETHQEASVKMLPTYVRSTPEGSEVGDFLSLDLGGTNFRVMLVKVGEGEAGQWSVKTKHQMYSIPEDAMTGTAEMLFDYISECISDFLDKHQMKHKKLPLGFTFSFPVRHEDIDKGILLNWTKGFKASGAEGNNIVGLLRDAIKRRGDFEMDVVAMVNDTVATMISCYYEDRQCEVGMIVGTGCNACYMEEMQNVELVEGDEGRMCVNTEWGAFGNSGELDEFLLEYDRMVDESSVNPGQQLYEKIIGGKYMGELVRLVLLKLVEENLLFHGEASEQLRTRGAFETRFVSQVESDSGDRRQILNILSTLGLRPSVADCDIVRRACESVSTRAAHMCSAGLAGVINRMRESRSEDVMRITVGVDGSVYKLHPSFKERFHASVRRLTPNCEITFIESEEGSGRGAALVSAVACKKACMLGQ
The test can be described thus: Steady-state kinetics of recombinant wild-type mouse glucokinase. As to conditions: vs vehicle. It is filed as biochemical.

Test [2] deals with recombinant mouse glucokinase (GK) isoform 1 (mouse) (UniProt P52792).

This note sets out measurements from PMC4084830 (Nature structural & molecular biology, 2013).

Take `CS(=O)(=O)c1ccc([C@@H](CC2CCCC2)C(=O)Nc2nccs2)cc1` [RO0281675]: the “effect on GK kinetic profile (in words)” value in test [1] (5 μM BAD SAHBs and/or 3 μM RO0281675) was “no significant effect on the Hill coefficient”. For the same compound, the “increase in Vmax” value in test [1] (5 μM BAD SAHB or 3 μM RO0281675) is “approximately 40%”.

As to BAD SAHBA (S118D) (peptide), in test [2], the GK Vmax (% of vehicle), G6PDH-coupled assay with 5 μM SAHB and 7.5 nM GK, 37 °C is 144 % veh.

For BAD SAHBA (S118L) (peptide), the GK Vmax (% of vehicle), G6PDH-coupled assay with 5 μM SAHB and 7.5 nM GK, 37 °C in test [2] is 89.6 % veh.

Regarding BAD SAHBA (S118pS) (peptide), the GK Vmax (% of vehicle), G6PDH-coupled assay with 5 μM SAHB and 7.5 nM GK, 37 °C in test [2] amounted to 129 % veh.
